Experiment [1] deals with rat HA-NK1R (neurokinin 1 receptor) (rat) (UniProt P14600). Kind of experiment: high-content imaging fluorescent competition binding on cells; HEK-NK1R cells in 96-well plates, increasing concentrations of Span or Span-Chol with 0.5 nM SP-TAMRA, 30 min in total, 37°C; granularity analysis, total cell binding (cell surface and intracellular); competitive binding, one site, fit logIC50.

Experiment [2] shares this target. As to the kind of experiment: high-content imaging fluorescent competition binding on cells; HEK-NK1R cells in 96-well plates, preincubated with Span or Span-Chol for 3.5 h, then 0.5 nM SP-TAMRA for a further 30 min (4 h in total), 37°C; granularity analysis, total cell binding (cell surface and intracellular); competitive binding, one site, fit logIC50.
The target is the same in experiment [3].
For experiment [4] the target is unchanged. The source holds these as a separate data set.
The target is the same in experiment [5]. The source holds these as a separate data set.

Sequence of UniProt P14600 (P14600 whole entry): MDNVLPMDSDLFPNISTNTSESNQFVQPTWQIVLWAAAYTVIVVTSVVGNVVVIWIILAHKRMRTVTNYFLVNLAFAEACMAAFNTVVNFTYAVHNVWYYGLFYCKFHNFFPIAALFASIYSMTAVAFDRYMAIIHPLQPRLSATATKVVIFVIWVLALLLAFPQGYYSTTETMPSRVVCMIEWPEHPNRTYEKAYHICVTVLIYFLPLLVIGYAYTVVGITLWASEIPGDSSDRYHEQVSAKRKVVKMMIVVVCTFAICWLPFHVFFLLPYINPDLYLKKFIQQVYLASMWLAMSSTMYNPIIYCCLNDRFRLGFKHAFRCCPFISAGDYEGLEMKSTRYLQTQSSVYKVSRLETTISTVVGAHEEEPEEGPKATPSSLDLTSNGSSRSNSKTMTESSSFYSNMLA

One may read the pIC50 as the negative decadic logarithm of the IC50, by convention in mol/L. Low values mean a large IC50, high ones a small IC50. Spantide I (peptide): the negative-log IC50 (pIC50) in experiment [1] turned out to be 5.99; in experiment [2] it was 5.55. Moreover, the inhibition of Ca^2+ transients to 1 nM SP in HEK-NK1R cells, 30 min preincubation with antagonist (blocks SP with NK1R); pIC50 in experiment [3] is 4.87. In experiment [4], this substance returned an inhibition of Ca^2+ transients to 1 nM SP in HEK-NK1R cells, continuous 4 h incubation with antagonist (blocks SP with NK1R); pIC50 of 5.11.

With “Spantide I conjugated to cholestanol via PEG linker (Span-Chol) (peptide)”, the pIC50 in experiment [1] worked out at 6.28; in experiment [2], 6.5. In experiment [3], this substance registered an inhibition of Ca^2+ transients to 1 nM SP in HEK-NK1R cells, 30 min preincubation with antagonist (blocks SP with NK1R); pIC50 of 6.25. In experiment [5], this substance returned an inhibition of Ca^2+ transients to 1 nM SP in HEK-NK1R cells, pulsed administration (30 min antagonist, wash, 3.5 h; 4 h total) (blocks SP with NK1R); pIC50 of 6.15. In experiment [4], this substance came in with an inhibition of Ca^2+ transients to 1 nM SP in HEK-NK1R cells, continuous 4 h incubation with antagonist (blocks SP with NK1R); pIC50 of 6.36.

Values taken from publication PMC7949131.
